According to US20240158477A1 (BIODURO JIANGSU, published 2024):
Numbering of substitutions follows the chain as printed. Like-named read-outs stand apart in the source and are kept apart here.

Key:
[1] = biological target: T1, COVID-19 S.P. RBD (Cat. #40592-V08B, SB) (SARS-CoV-2, UniProt P0DTC2 319-541)
[2] = biological target: RBD-Fc (SARS-CoV-2 S protein amino acids 319-541 with human IgG1 Fc) (SARS-CoV-2; human, UniProt P0DTC2 319-541)
[3] = biological target: SARS-CoV-2 S protein (wildtype) (SARS-CoV-2, UniProt P0DTC2 14-1273); assay: cell-based or functional assay
[4] = biological target: T1, COVID-19 S.P. RBD (Cat. #40592-V08B, SB); remark: listed apart in the source

B1: Fc tagged nanobody VHH80 (Fc fusion)
chain: EVQLVESGGGLVQPGGSLRLSCAASGFISNFNLMGWFRQAPGKGRELVATINSFDDITYYPDSVEGRFTISRDNAKRMVYLQMNSLRAEDTAVYYCAAEVRSSLDYALWTSRRSAFSYWGQGTQVTVSSGSGGGGSGGGGS
[1]
  Kd: 4.27 nM

B2: Fc tagged nanobody VHH60 (Fc fusion)
chain: EVQLVESGGGLVQPGGSLRLSCAASGRTFRVNLMGWFRQAPGKGRELVASINGFDDITYYPDSVEGRFTISRDNAKRMVYLQMNSLRAEDTAVYYCAAYDSDYDGRLFNYWGQGTQVTVSSGSGGGGSGGGGS
[2]
  EC50 (read off the curve): ~0.4 nM
[1]
  Kd: 2.56 nM
[3]
  IC50, authentic SARS-CoV-2 neutralization on Vero-E6 cells (viral RNA by RT-PCR): 1.53 nM
  IC50, pseudovirus neutralization (luciferase activity in Caco-2 cells): 7.63 nM

B3: Fc tagged nanobody VHH79 (Fc fusion)
chain: EVQLVESGGGLVQPGGSLRLSCAASGFTSRNYFMGWFRQAPGKGRELVATINSLSSITYYPDSVEGRFTISRDNAKRMVYLQMNSLRAEDTAVYYCAVYTPTTGPGEGSYTPWHDYWGQGTQVTVSSGSGGGGSGGGGS
[1]
  Kd: 3.44 nM

B4: Fc tagged nanobody VHH35 (Fc fusion)
chain: EVQLVESGGGLVQPGGSLRLSCAASGSIYSFNFMGWFRQAPGKGRELVATINSFDDITYYPDSVEGRFTISRDNAKRMVYLQMNSLRAEDTAVYYCAVLGERTGISYGSAFDYWGQGTQVTVSSGSGGGGSGGGGS
[4]
  Kd: 0.535 nM

B5: Fc tagged nanobody VHH34 (Fc fusion)
chain: EVQLVESGGGLVQPGGSLRLSCAASGFIYSFNIMGWFRQAPGKGRELVASINWFSDITYYPDSVEGRFTISRDNAKRMVYLQMNSLRAEDTAVYYCAAYLLRGDDRYYATYSYWGQGTQVTVSSGSGGGGSGGGGS
[1]
  Kd: 2.79 nM

B6: Fc tagged nanobody VHH82 (Fc fusion)
chain: B5 chain with N52S, W53S, F54Y, S55D
[1]
  Kd: 2.29 nM

B7: Fc tagged nanobody VHH43 (Fc fusion)
chain: EVQLVESGGGLVQPGGSLRLSCAASGFISDADIMGWFRQAPGKGRELVASINSYDSITYYPDSVEGRFTISRDNAKRMVYLQMNSLRAEDTAVYYCAVRVHSRDFSYWGQGTQVTVSSGSGGGGSGGGGS
[1]
  Kd: 1.44 nM
